Here are results for one molecule from patent EP4321174A1 (Genome and Company, dated 2024).

Assay in all cases: ELISA, coated CNTN4 domain sample, anti-human IgG Fc-HRP
Background: An ELISA detects its analyte on a solid surface through an enzyme-linked reagent.

The target in experiment [1] is T1, Human CNTN4 domain sample D1-6 (human, UniProt Q8IWV2 19-586, limits assumed).
T1 construct: domain: Domains 1 to 6; Coated at 2.3 ug/mL
T1 sequence (looked up): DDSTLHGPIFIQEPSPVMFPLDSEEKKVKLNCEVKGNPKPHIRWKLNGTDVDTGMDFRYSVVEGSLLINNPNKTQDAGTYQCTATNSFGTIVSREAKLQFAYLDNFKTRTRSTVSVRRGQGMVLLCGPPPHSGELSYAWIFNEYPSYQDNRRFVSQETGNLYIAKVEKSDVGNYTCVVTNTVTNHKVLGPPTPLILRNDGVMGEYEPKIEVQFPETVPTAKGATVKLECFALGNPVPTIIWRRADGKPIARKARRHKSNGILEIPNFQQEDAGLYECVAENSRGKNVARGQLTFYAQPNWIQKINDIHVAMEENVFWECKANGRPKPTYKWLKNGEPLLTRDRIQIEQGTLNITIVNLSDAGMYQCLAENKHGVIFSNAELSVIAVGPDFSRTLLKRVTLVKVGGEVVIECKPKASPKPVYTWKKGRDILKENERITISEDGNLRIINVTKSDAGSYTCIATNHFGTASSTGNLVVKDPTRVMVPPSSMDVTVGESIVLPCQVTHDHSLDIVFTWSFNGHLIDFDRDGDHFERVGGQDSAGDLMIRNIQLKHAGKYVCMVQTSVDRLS

Experiment [2] deals with T2, Human CNTN4 domain sample D1-7 (human, UniProt Q8IWV2 19-697, limits assumed).
T2 construct: domain: Domains 1 to 7; Coated at 2.8 ug/mL
T2 sequence (looked up): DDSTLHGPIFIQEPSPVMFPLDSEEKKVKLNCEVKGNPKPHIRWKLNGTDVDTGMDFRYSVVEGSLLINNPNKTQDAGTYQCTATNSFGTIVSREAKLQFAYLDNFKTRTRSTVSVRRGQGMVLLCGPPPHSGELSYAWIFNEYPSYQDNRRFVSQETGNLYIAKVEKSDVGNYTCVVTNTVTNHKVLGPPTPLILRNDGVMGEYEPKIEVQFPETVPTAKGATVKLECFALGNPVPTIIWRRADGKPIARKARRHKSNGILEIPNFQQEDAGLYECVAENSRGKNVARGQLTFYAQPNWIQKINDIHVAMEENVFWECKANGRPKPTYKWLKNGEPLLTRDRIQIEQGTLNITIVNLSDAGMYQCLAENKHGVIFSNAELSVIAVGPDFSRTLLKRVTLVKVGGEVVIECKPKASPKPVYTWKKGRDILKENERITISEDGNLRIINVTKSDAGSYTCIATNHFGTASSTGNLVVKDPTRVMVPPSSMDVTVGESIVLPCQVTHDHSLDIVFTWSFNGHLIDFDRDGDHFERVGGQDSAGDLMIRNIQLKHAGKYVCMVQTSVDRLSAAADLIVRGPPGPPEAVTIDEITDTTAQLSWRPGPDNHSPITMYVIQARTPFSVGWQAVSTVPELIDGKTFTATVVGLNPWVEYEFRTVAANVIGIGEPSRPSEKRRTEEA

For experiment [3], the target named is T3, Human CNTN4 domain sample D1-8 (human, UniProt Q8IWV2 19-799, limits assumed).
T3 construct: domain: Domains 1 to 8; Coated at 3.2 ug/mL
T3 sequence (looked up): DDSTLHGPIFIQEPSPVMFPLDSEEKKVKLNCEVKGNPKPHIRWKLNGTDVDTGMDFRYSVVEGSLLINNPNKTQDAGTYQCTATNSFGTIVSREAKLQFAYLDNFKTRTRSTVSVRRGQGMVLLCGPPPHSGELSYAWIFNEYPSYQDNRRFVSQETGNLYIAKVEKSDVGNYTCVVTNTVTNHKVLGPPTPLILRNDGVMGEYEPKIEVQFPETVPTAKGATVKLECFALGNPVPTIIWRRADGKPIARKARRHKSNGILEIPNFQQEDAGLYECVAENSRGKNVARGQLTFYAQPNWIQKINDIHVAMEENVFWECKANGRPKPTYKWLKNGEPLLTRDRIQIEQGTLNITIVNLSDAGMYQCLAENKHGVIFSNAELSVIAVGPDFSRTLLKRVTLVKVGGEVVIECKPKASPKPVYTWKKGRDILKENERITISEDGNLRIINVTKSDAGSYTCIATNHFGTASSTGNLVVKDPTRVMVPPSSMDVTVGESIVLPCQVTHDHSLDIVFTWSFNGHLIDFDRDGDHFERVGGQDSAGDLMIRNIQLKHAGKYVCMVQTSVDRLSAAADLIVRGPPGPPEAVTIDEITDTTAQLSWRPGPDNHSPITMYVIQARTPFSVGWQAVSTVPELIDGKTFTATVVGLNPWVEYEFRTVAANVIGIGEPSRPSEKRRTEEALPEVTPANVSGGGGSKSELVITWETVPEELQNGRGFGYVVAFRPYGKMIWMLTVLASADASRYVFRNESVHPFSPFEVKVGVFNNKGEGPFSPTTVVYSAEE

The target of experiment [4] is T4, Human CNTN4 domain sample D1-9 (human, UniProt Q8IWV2 19-899, limits assumed).
T4 construct: domain: Domains 1 to 9; Coated at 3.6 ug/mL
T4 sequence (looked up): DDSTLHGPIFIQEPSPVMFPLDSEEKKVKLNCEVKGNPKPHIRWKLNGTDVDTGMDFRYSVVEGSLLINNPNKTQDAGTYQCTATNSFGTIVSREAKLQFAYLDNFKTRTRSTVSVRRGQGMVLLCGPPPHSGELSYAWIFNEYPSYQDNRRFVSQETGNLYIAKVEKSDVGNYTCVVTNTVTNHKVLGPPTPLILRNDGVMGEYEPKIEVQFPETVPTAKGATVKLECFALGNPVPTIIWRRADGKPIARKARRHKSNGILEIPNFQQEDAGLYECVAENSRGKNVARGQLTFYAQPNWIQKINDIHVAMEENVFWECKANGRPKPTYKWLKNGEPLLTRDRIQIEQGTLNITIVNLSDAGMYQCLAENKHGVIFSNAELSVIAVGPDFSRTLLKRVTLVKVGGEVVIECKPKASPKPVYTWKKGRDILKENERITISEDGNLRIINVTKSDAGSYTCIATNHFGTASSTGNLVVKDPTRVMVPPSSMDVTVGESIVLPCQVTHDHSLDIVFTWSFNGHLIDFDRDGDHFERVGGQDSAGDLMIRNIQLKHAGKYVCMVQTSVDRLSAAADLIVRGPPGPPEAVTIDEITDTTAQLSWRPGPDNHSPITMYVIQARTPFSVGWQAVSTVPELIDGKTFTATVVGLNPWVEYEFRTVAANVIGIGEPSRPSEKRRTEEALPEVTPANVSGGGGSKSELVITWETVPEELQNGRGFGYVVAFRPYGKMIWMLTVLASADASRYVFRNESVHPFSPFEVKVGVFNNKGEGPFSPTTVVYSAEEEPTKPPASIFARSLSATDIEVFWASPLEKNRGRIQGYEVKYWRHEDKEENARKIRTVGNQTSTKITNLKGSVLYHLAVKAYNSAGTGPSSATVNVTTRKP

The target in experiment [5] is T5, Human CNTN4 domain sample Full (Domains 1 to 10) (human, UniProt Q8IWV2 19-1000, limits assumed).
T5 construct: domain: Domains 1 to 10 (Ig1 to FN4); Coated on the ELISA plate at 4 ug/mL
T5 sequence (looked up): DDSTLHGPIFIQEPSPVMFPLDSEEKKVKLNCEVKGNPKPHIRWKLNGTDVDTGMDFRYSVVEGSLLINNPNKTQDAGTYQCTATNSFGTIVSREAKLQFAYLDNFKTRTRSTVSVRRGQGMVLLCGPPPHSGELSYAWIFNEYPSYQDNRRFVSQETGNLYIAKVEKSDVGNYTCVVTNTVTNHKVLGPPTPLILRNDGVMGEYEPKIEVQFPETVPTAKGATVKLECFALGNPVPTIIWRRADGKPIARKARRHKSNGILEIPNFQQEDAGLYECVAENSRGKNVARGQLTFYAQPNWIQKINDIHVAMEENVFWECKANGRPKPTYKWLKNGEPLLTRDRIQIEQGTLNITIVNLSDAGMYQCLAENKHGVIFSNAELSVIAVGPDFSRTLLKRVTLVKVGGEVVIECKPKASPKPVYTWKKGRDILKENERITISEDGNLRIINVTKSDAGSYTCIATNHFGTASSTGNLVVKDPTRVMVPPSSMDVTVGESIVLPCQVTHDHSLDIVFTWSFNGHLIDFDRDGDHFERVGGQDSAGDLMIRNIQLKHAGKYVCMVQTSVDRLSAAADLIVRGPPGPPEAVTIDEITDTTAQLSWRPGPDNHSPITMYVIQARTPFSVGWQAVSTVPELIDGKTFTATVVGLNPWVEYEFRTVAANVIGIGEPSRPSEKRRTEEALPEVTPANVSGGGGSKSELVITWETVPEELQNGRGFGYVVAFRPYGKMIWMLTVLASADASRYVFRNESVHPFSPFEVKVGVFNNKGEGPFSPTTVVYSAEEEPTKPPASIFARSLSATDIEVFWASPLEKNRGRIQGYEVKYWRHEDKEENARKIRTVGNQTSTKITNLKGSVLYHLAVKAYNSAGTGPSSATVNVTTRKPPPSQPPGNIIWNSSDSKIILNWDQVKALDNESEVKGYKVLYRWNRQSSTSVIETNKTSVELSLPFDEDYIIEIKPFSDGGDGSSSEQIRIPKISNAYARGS

Experiment [6] has as its target T6, Human CNTN4 domain sample D1-4 (human, UniProt Q8IWV2 19-400, limits assumed).
T6 construct: domain: Domains 1 to 4; Coated at 1.6 ug/mL
T6 sequence (looked up): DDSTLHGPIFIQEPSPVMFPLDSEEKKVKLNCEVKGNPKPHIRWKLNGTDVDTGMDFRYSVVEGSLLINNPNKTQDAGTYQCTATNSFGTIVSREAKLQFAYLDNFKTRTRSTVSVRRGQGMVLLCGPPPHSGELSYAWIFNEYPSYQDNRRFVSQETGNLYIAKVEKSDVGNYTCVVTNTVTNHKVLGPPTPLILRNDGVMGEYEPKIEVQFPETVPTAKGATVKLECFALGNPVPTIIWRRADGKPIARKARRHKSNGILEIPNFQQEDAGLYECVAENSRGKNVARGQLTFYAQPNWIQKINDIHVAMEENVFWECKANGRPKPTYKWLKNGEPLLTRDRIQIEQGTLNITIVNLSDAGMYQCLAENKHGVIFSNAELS

Experiment [7] has as its target T7, Human CNTN4 domain sample D1-5 (human, UniProt Q8IWV2 19-493, limits assumed).
T7 construct: domain: Domains 1 to 5; Coated at 2.0 ug/mL
T7 sequence (looked up): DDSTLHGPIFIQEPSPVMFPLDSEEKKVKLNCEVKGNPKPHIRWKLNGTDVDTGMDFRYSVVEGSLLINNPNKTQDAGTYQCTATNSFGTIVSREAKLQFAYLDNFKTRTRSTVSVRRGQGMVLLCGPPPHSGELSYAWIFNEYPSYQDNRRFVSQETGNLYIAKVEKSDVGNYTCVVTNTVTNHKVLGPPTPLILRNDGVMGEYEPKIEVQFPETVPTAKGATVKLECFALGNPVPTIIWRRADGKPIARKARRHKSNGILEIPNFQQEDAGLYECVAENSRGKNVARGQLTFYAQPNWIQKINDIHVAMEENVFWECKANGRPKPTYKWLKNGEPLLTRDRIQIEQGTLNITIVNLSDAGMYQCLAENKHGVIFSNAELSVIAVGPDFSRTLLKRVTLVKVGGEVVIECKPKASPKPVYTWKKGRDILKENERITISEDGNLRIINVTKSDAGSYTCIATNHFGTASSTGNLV

B1: anti-CNTN4 chicken-human chimeric IgG4 antibody AB1 (antibody, V domains shown)
VH: AVTLDESEGGLQTPGGALSLVCKASGFTFSSFNMFWVRQAPGKGLEYVAEISGGGGSTWYAPAVKGRATISRDNGQSTVRLQLNNLRAEDTGTYYCAKSADTWSYGAATIDAWGHGTEVIVSS
VL: ALTQPSSVSANLGETVKITCSGSSGSYGWYQQKSPGSAPVTLIYDNTNRPSDIPSRFSGSGSGSTGTLTITGVRAEDEAVYYCGGYDGSTDVFGAGTTLTVL
notes: They were cloned into a chicken-human chimeric IgG4 and purified on Kappa select resin, so the light chain has a kappa constant region; also called anti-CNTN4 antibody AB1; anti-CNTN4 129 chimeric IgG4 antibody
As to B1, the binding result was “no binding” in experiment [1]; “no binding” in experiment [2]; “binds” in experiment [3]; “binds” in experiment [4]; “binds” in experiment [5]; “no binding” in experiment [6]. Moreover, in experiment [7], the binding result is “no binding”.
